In FireProtDB:
Where “and” joins values, the source holds several entries; their conditions need not be identical. Equal entries are not always repeated.

B1: Lysozyme C, P61626 (parent)
chain: MKALIVLGLVLLSVTVQGKVFERCELARTLKRLGMDGYRGISLANWMCLAKWESGYNTRATNYNAGDRSTDYGIFQINSRYWCNDGKTPGAVNACHLSCSALLQDNIADAVACAKRVVRDPQGIRAWVAWRNRCQNRDVRQYVQGCGV
B2: Malate dehydrogenase, P80040 (parent)
chain: MRKKISIIGAGFVGSTTAHWLAAKELGDIVLLDFVEGVPQGKALDLYEASPIEGFDVRVTGTNNYADTANSDVIVVTSGAPRKPGMSREDLIKVNADITRACISQAAPLSPNAVIIMVNNPLDAMTYLAAEVSGFPKERVIGQAGVLDAARYRTFIAMEAGVSVEDVQAMLMGGHGDEMVPLPRFSTISGIPVSEFIAPDRLAQIVERTRKGGGEIVNLLKTGSAYYAPAAATAQMVEAVLKDKKRVMPVAAYLTGQYGLNDIYFGVPVILGAGGVEKILELPLNEEEMALLNASAKAVRATLDTLKSL
B3: Pseudoazurin, P80401 (parent)
chain: MFHHSLAAAAAALLALAAPGFAATHEVHMLNKGESGAMVFEPAFVRAEPGDVINFVPTDKSHNVEAIKEILPEGVESFKSKINESYTLTVTEPGLYGVKCTPHFGMGMVGLVQVGDAPENLDAAKTAKMPKKARERMDAELAQVN
B4: Amicyanin, P22364 (parent)
chain: MISATKIRSCLAACVLAAFGATGALADKATIPSESPFAAAEVADGAIVVDIAKMKYETPELHVKVGDTVTWINREAMPHNVHFVAGVLGEAALKGPMMKKEQAYSLTFTEAGTYDYHCTPHPFMRGKVVVE
B5: Cyanovirin-N, P81180 (parent)
chain: LGKFSQTCYNSAIQGSVLTSTCERTNGGYNTSSIDLNSVIENVDGSLKWQPSNFIETCRNTQLAGSSELAAECKTRAQQFVSTKINLDDHIANIDGTLKYE
B6: Holocytochrome-c synthase, P06182 (parent)
chain: MGWFWADQKTTGKDIGGAAVSSMSGCPVMHESSSSSPPSSECPVMQGDNDRINPLNNMPELAASKQPGQKMDLPVDRTISSIPKSPDSNEFWEYPSPQQMYNAMVRKGKIGGSGEVAEDAVESMVQVHNFLNEGCWQEVLEWEKPHTDESHVQPKLLKFMGKPGVLSPRARWMHLCGLLFPSHFSQELPFDRHDWIVLRGERKAEQQPPTFKEVRYVLDFYGGPDDENGMPTFHVDVRPALDSLDNAKDRMTRFLDRMISGPSSSSSAP
B7: Beta-xylanase, O68541 (parent)
chain: MNLSRRQLLALTSAGIAMGQASKLAAATKAAEQTGLKSAYKDNFLIGAALNATIASGADERLNTLIAKEFNSITPENCMKWGVLRDAQGQWNWKDADAFVAFGTKHNLHMVGHTLVWHSQIHDEVFKNADGSYISKAALQKKMEEHITTLAGRYKGKLAAWDVVNEAVGDDLKMRDSHWYKIMGDDFIYNAFTLANEVDPKAHLMYNDYNIERTGKREATVEMIERLQKRGMPIHGLGIQGHLGIDTPPIAEIEKSIIAFAKLGLRVHFTELDVDVLPSVWELPVAEVSTRFEYKPERDPYTKGLPQEMQDKLAKRYEDLFKLFIKHSDKIDRATFWGVSDDASWLNGFPIPGRTNYPLLFDRKLQPKDAYFRLLDLKR
B8: Thioredoxin, P80579 (parent)
chain: ATMTLTDANFQQAIQGDKPVLVDFWAAWCGPCRMMAPVLEEFAEAHADKVTVAKLNVDENPETTSQFGIMSIPTLILFKGGRPVKQLIGYQPKEQLEAQLADVLQ

Variants of: B1
Settings: Homo sapiens; pH 4; 10 °C; GdnHCl; CD; GdnHCl 40 mM; reversible: yes; structure 1LZ1; whole UniProt chain shown

| Variant | ddG of mutation (higher = less stable) [kcal/mol] | denaturant m value [kcal/mol/M] | denaturant midpoint (higher = more stable) [M] | unfolding free energy [kcal/mol] |
| --- | --- | --- | --- | --- |
| I74T | 6.67 | 2.96 | 2.7 | 7.31 |
| D85H | 4.54 | 3.2 | 3.1 | 9.44 |

Same assay, conditions: Homo sapiens; pH 3; 10 °C; GdnHCl; Fluorescence; glycine-HCl 40 mM; reversible: yes; structure 1LZ1; whole UniProt chain shown

| Variant | ddG of mutation (higher = less stable) [kcal/mol] | unfolding free energy [kcal/mol] |
| --- | --- | --- |
| C95A C113A | 5.7 | 6.1 |

Same assay, conditions: Homo sapiens; pH 4; 10 °C; GdnHCl; CD; glycine-HCl 40 mM; reversible: yes; structure 1LZ1; whole UniProt chain shown

| Variant | ddG of mutation (higher = less stable) [kcal/mol] | unfolding free energy [kcal/mol] |
| --- | --- | --- |
| C95A C113A | 5.8 | 8.2 |

Same assay, conditions: Homo sapiens; pH 5.2; 20 °C; GdnHCl; CD; Sodium acetate 20 mM; reversible: yes; structure 1LZ1; whole UniProt chain shown

| Variant | ddG of mutation (higher = less stable) [kcal/mol] | denaturant m value [kcal/mol/M] | denaturant midpoint (higher = more stable) [M] | unfolding free energy [kcal/mol] |
| --- | --- | --- | --- | --- |
| W82C C83A | 2.2 | 3.3 | 3.79 | 12.5 |

Same assay, conditions: Homo sapiens; pH 2.35; 36.7 °C; Thermal; DSC; Gly-HCl 0.05 M; reversible: yes; structure 1LZ1; whole UniProt chain shown

| Variant | unfolding enthalpy (calorimetric) [kcal/mol] | unfolding enthalpy (van 't Hoff) [kcal/mol] |
| --- | --- | --- |
| I77A | 55.7 | 58.1 |

Same assay, conditions: Homo sapiens; pH 2.9; 47.2 °C; Thermal; DSC; Gly-HCl 0.05 M; reversible: yes; structure 1LZ1; whole UniProt chain shown

| Variant | unfolding enthalpy (calorimetric) [kcal/mol] | unfolding enthalpy (van 't Hoff) [kcal/mol] |
| --- | --- | --- |
| I77A | 72.7 | 74.8 |

Variants of: B2
Settings: Chloroflexus aurantiacus (strain ATCC 29366 / DSM 635 / J-10-fl); pH 7.5; Thermal; CD; potassium phosphate 10 mM; reversible: No; structure 1GUY; whole UniProt chain shown

| Variant | Tm [°C] | change of melting temperature, mutant - wild type (higher = more stable) [°C] |
| --- | --- | --- |
| T187C | 82.8 | 15 |

Variants of: B3
Settings: Paracoccus pantotrophus; pH 7; 25 °C; Urea; CD; Sodium phosphate 20 mM; Na2SO4 0.5 M; reversible: yes; structure 1ADW; whole UniProt chain shown

| Variant | denaturant m value [kcal/mol/M] |
| --- | --- |
| Y96W | 1.19 |

Variants of: B4
Settings: Paracoccus denitrificans; pH 7.5; Thermal; absorbance; Potassium Phosphate Buffer 10 mM; structure 2OV0; whole UniProt chain shown

| Variant | Tm [°C] |
| --- | --- |
| W71Y | 53.9 |

Variants of: B5
Settings: Nostoc ellipsosporum; pH 6; Thermal; CD; Sodium phosphate 10 mM; structure 1N02; whole UniProt chain shown

| Variant | Tm [°C] | change of melting temperature, mutant - wild type (higher = more stable) [°C] |
| --- | --- | --- |
| P51G | 50.2 | 1.7 |

Variants of: B6
Settings: Saccharomyces cerevisiae (strain ATCC 204508 / S288c); pH 6; Thermal; Absorbance; Sodium phosphate 100 mM; reversible: yes; whole UniProt chain shown

| Variant | Tm [°C] | change of melting temperature, mutant - wild type (higher = more stable) [°C] | heat capacity change of unfolding [kcal/mol/K] | unfolding enthalpy (van 't Hoff) [kcal/mol] |
| --- | --- | --- | --- | --- |
| N57I | 63.7 | 17.2 | 2 | 109 |

Variants of: B7
Settings: Cellvibrio mixtus; pH 7.5; Thermal; DSC; MOPS 20 mM; CaCl2 1 mM; reversible: No; structure 1UR1; whole UniProt chain shown

| Variant | Tm [°C] | change of melting temperature, mutant - wild type (higher = more stable) [°C] |
| --- | --- | --- |
| A334V | 62.1 | 3.5 |
| A334V G348D | 66.6 | 8 |
| G348D | 64.6 | 6 |

Variants of: B8
Settings: Alicyclobacillus acidocaldarius subsp. acidocaldarius; pH 7; GdHCl; CD; Sodium phosphate 10 mM; reversible: yes; structure 1QUW; whole UniProt chain shown

| Variant | denaturant midpoint (higher = more stable) [M] |
| --- | --- |
| R82E | 2.7 |
| K18G R82E | 2.4 |
| D102X | 2 |

Same assay, conditions: Alicyclobacillus acidocaldarius subsp. acidocaldarius; pH 7; Thermal; CD; Sodium phosphate 10 mM; reversible: yes; structure 1QUW; whole UniProt chain shown

| Variant | Tm |
| --- | --- |
| R82E | 81.5 °C and 81.4 °C |
| K18G R82E | 73.1 °C |
| K18G | 78.1 °C and 78.8 °C |

Same assay, conditions: Alicyclobacillus acidocaldarius subsp. acidocaldarius; pH 7; Urea; CD; Sodium phosphate 10 mM; reversible: yes; structure 1QUW; whole UniProt chain shown

| Variant | denaturant midpoint (higher = more stable) [M] |
| --- | --- |
| R82E | 5.5 |
| K18G R82E | 4.6 |
| K18G | 5.2 |
| D102X | 4 |
